Key:
FVa (activated factor V) [1] = biological target: T1, FVa (activated factor V) (human, UniProt P12259;P12259 29-737;1574-2224); assay: filter binding
FVIII = FVIII (UniProt P00451 20-2351); assay: filter binding
FXa = FXa (UniProt P00742;P00742 41-179;235-488); assay: filter binding
thrombin (FIIa) = thrombin (FIIa) (UniProt P00734;P00734 315-363;364-622); assay: filter binding
prothrombin (FII) = prothrombin (FII) (UniProt P00734 44-622); assay: filter binding
[2] = biological target: T2, modified FV (B-domain-truncated factor V) (human, UniProt P12259 29-838+1520-2224, R737Q;R1573Q;internal_change); assay: filter binding
FX = FX (UniProt P00742;P00742 41-179;183-488); assay: filter binding
Chain of FX (P00742 41-179, chain 1 of 2): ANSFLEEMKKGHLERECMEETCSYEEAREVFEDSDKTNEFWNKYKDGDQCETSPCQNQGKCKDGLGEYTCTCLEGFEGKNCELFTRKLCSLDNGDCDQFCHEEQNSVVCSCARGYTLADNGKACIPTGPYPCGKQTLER
Chain of FX (P00742 183-488, chain 2 of 2): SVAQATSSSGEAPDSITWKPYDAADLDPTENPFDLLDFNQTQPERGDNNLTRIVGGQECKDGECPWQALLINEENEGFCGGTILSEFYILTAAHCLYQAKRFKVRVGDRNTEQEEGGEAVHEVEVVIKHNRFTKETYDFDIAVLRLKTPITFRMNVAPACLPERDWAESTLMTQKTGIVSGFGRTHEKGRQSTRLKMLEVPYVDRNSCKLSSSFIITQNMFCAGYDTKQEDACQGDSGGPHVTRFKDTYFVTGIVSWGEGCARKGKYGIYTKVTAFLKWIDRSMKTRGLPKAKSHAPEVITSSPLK

FVa (activated factor V) [3] = biological target: T1, FVa (activated factor V); assay: filter binding; remark: listed apart in the source
FVa heavy chain = FVa heavy chain (UniProt P12259 29-737); assay: SPR
FVa light chain = FVa light chain (UniProt P12259 1574-2224); assay: SPR
FVa (activated factor V) [4] = biological target: T1, FVa (activated factor V); assay: SPR
[5] = biological target: T2, modified FV (B-domain-truncated factor …); assay: SPR

Chain of FVIII (P00451 20-2351): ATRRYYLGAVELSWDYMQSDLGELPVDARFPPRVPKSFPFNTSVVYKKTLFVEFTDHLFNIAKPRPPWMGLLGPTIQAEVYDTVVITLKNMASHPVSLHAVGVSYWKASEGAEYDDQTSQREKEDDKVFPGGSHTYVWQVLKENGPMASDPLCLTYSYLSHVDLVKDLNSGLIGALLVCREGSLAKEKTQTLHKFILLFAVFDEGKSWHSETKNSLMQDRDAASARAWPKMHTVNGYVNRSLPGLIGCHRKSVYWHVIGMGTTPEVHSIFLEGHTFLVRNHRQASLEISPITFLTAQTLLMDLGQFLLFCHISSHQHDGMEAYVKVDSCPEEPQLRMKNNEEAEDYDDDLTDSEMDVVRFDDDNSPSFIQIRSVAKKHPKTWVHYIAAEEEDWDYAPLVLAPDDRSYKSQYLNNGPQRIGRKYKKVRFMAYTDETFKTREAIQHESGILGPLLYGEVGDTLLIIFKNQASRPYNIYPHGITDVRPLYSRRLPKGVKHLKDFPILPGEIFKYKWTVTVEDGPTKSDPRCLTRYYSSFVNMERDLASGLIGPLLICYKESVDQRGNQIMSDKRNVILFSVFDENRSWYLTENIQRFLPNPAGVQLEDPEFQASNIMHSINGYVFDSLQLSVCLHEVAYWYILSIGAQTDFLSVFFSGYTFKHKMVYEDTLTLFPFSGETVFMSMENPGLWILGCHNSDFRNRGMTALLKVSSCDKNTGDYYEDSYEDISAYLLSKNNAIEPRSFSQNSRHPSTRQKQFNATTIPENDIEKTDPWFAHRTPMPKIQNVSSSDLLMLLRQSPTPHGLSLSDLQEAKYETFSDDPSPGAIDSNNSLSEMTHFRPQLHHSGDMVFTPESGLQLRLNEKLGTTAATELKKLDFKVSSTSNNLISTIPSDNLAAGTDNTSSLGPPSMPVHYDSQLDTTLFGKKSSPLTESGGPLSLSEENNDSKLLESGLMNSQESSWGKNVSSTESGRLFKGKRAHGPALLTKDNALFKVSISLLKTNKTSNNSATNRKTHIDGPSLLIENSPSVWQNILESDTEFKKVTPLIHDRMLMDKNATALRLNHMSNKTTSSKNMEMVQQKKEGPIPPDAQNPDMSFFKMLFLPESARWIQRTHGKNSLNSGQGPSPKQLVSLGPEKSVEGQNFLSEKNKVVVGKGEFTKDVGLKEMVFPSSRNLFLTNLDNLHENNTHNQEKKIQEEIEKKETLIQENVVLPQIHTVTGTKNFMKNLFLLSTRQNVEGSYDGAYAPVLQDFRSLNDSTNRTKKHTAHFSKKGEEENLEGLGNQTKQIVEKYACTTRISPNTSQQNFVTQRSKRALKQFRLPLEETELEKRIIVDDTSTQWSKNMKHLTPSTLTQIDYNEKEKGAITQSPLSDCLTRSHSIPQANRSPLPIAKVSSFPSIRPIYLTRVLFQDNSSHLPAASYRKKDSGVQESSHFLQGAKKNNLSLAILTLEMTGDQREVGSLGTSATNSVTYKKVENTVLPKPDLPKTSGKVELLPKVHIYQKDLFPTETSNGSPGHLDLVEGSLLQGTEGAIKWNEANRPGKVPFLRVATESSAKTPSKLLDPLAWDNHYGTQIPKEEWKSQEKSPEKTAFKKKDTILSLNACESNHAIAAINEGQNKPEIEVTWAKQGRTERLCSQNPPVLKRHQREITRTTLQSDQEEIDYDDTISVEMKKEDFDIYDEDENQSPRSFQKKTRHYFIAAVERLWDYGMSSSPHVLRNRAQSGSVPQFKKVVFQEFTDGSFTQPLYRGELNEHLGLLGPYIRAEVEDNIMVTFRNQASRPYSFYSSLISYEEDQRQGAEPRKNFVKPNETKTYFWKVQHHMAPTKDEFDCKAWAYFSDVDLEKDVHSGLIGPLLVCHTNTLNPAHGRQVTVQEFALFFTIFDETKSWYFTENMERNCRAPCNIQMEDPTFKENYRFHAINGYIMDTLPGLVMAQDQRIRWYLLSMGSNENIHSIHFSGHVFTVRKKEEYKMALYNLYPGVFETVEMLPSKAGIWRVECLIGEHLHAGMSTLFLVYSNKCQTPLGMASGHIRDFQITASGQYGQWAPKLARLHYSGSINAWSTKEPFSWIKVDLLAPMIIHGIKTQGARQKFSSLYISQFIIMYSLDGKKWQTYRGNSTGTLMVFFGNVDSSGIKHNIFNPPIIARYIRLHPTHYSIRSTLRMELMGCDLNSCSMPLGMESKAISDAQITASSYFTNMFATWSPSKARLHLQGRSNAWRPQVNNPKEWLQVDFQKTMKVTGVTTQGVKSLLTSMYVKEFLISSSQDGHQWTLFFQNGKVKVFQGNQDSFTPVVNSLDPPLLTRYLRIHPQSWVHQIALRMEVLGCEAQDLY
Chain of FXa (P00742 41-179, chain 1 of 2): as the sequence (P00742 41-179, chain 1 of 2) above
Chain of FXa (P00742 235-488, chain 2 of 2): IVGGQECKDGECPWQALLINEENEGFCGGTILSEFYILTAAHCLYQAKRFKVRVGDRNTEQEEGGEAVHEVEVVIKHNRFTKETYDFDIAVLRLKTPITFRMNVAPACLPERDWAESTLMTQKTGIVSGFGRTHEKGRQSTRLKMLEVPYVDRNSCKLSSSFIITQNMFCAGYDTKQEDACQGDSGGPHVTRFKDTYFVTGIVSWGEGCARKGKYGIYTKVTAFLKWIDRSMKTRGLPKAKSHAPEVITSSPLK

B1: T18.3 (structured_RNA)
RNA: GGACUUGGAUAACCUCACCGCAAUGGCGGCUUGUCAGACGACUCGCUGAGGAUCCGAG
modifications: all C and U 2'-fluoro
Kd (FVa (activated factor V) [1]): 0.99 nM | binding result (FVIII): no binding | binding result (FXa): no binding | binding result (thrombin (FIIa)): no binding | binding result (prothrombin (FII)): no binding | Kd [2]: 28 nM | binding result (FX): no binding

B2: Mut1 (structured_RNA)
RNA: GGACUUGGAUAACCUCACCGCAAUGGCGGAGGGUCAGACGACUCGCUGAGGAUCCGAG
modifications: all C and U 2'-fluoro
Kd (FVa (activated factor V) [3]): 359 ± 323 nM | Kd [2]: 410 ± 46 nM

B3: T18.3-Bio (structured_RNA)
RNA: GGACUUGGAUAACCUCACCGCAAUGGCGGCUUGUCAGACGACUCGCUGAGGAUCCGAG
modifications: all C and U 2'-fluoro
Kd (FVa heavy chain): 113 ± 43 nM | Kd (FVa light chain): 3.33 ± 0.69 nM | Kd (FVa (activated factor V) [4]): 4.73 ± 0.69 nM | Kd [5]: 11.4 ± 3 nM
